Like-named read-outs stand apart in the source and are kept apart here. Where no end group is shown, it is not given here. The star is where a group is joined. Biotin = O=C1N[C@H]2[C@H](CS[C@H]2CCCCC(=O)*)N1
What was measured:
[1] = target: ptau 225-245 (pS235, pS238) (human); assay: peptide ELISA, 1 ug/mL IgG
Description: (§1) Plates were coated in TBS overnight at 4° C. The following day, plates were washed five times with TB S/0.05% TWEEN® (TBS-T) and blocked with 150 IA of TBS-T plus 2.5% BSA (blocking buffer) for 2 hour. Tau peptides were captured on streptavidin-coated plates (Pierce) at a concentration of 0.43 μM in 100 μl of TBS. Tau peptides used to set up ELISA assays were the same used as baits in corresponding sorting experiment. Tau peptide-coated plates were then incubated at RT for 1.5 hours. All plates were then washed five times with TBS/0.05% TWEEN® and blocked with 150 μl and 300 μl (tau peptide plates only) of blocking buffer and incubated at RT for 2 hours. […] Primary antibodies were incubated for 2 hours at RT and washed five times in TBS-T. Finally, goat-anti human IgG Fab or goat anti-mouse HRP (Jackson Labs) was used at 1:2000 and 1:4000, respectively, and incubated for 1 hour at RT. Plates were washed five times in TBS-T and developed with SureBlue Reserve TMB Microwell Peroxidase Substrate (KPL). The reaction was halted by the addition of 50 μl and 100 μl (peptide plates) of TMB Stop Solution (KPL) and the absorbance at 450 nm was measured using an ELISA plate reader. Supernatants with the aforementioned binding activities were subsequently reconfirmed in an independent ELISA experiment.

[2] = target: ptau 221-245 (pT231, pS238) (human); assay: peptide ELISA, 1 ug/mL IgG
Description: as §1

[3] = target: ptau 228-245 (pS238) (human); assay: peptide ELISA, 1 ug/mL IgG
Description: as §1

[4] = target: T1, ptau 48-71 (p64) (human); assay: peptide ELISA, biotinylated peptide on streptavidin plate, IgG titrated (Example 14)
T1 construct: also called ptau 48-71 (Ser64)
T1 sequence (main, as listed by the source): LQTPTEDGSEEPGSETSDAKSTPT
Description: (§2) Plates were washed five times with TBS-T followed by the addition of secondary antibody [goat Anti-Human IgG F(ab′)₂ (Jackson Labs) at 1:2000 dilution], diluted in TBS plus 0.25% BSA, and incubated at RT for 1 hour. Following incubation, plates were washed four times in TBS-T and developed with SureBlue Reserve TMB Microwell Peroxidase Substrate (KPL) for approximately 90 seconds. The reaction was immediately halted by the addition of TMB Stop Solution (KPL) and the absorbance at 450 nm was measured using an ELISA plate reader. Each experiment was conducted in triplicate across three different days. Reactivity was considered positive when values were equal to or higher than an OD of 0.4 in the ELISA assay. […] (−) for average of two O.D. 450 nm readings <0.3; (−/+) for >0.5 and <1.0; (+) for >1.0 and <1.5; (++) for >1.5. […] (−) for average of three O.D. 450 nm readings <0.3; (−/+) for >0.5 and <1.0; (+) for >1.0 and <1.5; (++) for >1.5.
(§3) (−) for average of two O.D. 450 nm readings <0.3; (−/+) for >0.5 and <1.0; (+) for >1.0 and <1.5; (++) for >1.5.

[5] = target: T2, tau 52-71 (A52) (human, N-terminal biotin, not carried by the letters); assay: alanine-scan peptide ELISA, 1 ug/mL IgG
T2 construct: T52A
T2 peptide: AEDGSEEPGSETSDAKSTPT
Description: as §2
(§4) To further characterize the specificity and amino acid contribution to binding of each of the recover mAbs, their reactivity to tau peptides with each position replaced with Alanine was tested by ELISA. […] (−) for average of two O.D. 450 nm readings <0.3; (−/+) for >0.5 and <1.0; (+) for >1.0 and <1.5; (++) for >1.5.

[6] = target: T3, tau 52-71 (A68) (human, N-terminal biotin on the synthetic peptide; not carried in the letters); assay: alanine-scan peptide ELISA, 1 ug/mL IgG
T3 construct: S68A
T3 peptide: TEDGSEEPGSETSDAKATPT
Description: as §2, §4

[7] = target: T4, tau 52-71 (A63) (human, N-terminal biotin on the synthetic peptide; not carried in the letters); assay: alanine-scan peptide ELISA, 1 ug/mL IgG
T4 construct: T63A
T4 peptide: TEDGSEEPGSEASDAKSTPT
Description: as §2, §4

[8] = target: T5, tau 52-71 (A56) (human, N-terminal biotin; not carried in the letters); assay: alanine-scan peptide ELISA, 1 ug/mL IgG
T5 construct: S56A
T5 peptide: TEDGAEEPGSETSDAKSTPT
Description: as §2, §4

[9] = target: T6, tau 52-71 (A64) (human, N-terminal biotin on the synthetic peptide; not carried in the letters); assay: alanine-scan peptide ELISA, 1 ug/mL IgG
T6 construct: S64A
T6 peptide: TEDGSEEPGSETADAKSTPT
Description: as §2, §4

[10] = target: T7, tau 52-71 (A70) (human, N-terminal biotin on the synthetic peptide; not carried in the letters); assay: alanine-scan peptide ELISA, 1 ug/mL IgG
T7 construct: P70A
T7 peptide: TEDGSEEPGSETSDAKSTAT
Description: as §2, §4

[11] = target: T8, tau 52-71 (A55) (human, N-terminal biotin (all tau peptides were synthesized with an amino-terminal biotin group); not carried in the letters); assay: alanine-scan peptide ELISA, 1 ug/mL IgG
T8 construct: G55A
T8 peptide: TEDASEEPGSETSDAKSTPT
Description: as §2, §4

[12] = target: T9, tau 52-71 (A69) (human, N-terminal biotin on the synthetic peptide; not carried in the letters); assay: alanine-scan peptide ELISA, 1 ug/mL IgG
T9 construct: T69A
T9 peptide: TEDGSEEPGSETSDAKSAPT
Description: as §2, §4

[13] = target: T10, tau 52-71 (A59) (human, N-terminal biotin; not carried in the letters); assay: alanine-scan peptide ELISA, 1 ug/mL IgG
T10 construct: P59A
T10 peptide: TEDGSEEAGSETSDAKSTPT
Description: as §2, §4

[14] = target: T11, tau 52-71 (A57) (human, N-terminal biotin; not carried in the letters); assay: alanine-scan peptide ELISA, 1 ug/mL IgG
T11 construct: E57A
T11 peptide: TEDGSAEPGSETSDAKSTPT
Description: as §2, §4

[15] = target: T12, tau 52-71 (A61) (human, N-terminal biotin; not carried in the letters); assay: alanine-scan peptide ELISA, 1 ug/mL IgG
T12 construct: S61A
T12 peptide: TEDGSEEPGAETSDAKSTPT
Description: as §2, §4

[16] = target: T13, tau 52-71 (A58) (human, N-terminal biotin; not carried in the letters); assay: alanine-scan peptide ELISA, 1 ug/mL IgG
T13 construct: E58A
T13 peptide: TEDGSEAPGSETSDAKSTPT
Description: as §2, §4

[17] = target: T14, tau 52-71 (A53) (human, N-terminal biotin, not carried by the letters); assay: alanine-scan peptide ELISA, 1 ug/mL IgG
T14 construct: E53A
T14 peptide: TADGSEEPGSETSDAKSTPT
Description: as §2, §4

[18] = target: T15, tau 52-71 (A60) (human, N-terminal biotin; not carried in the letters); assay: alanine-scan peptide ELISA, 1 ug/mL IgG
T15 construct: G60A
T15 peptide: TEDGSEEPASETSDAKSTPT
Description: as §2, §4

[19] = target: T16, tau 52-71 (A54) (human, N-terminal biotin, not carried by the letters); assay: alanine-scan peptide ELISA, 1 ug/mL IgG
T16 construct: D54A
T16 peptide: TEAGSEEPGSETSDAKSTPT
Description: as §2, §4

[20] = target: T17, tau 52-71 (A71) (human, N-terminal biotin on the synthetic peptide; not carried in the letters); assay: alanine-scan peptide ELISA, 1 ug/mL IgG
T17 construct: T71A
T17 peptide: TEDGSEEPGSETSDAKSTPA
Description: as §2, §4

[21] = target: T18, tau 52-71 (A62) (human, N-terminal biotin; not carried in the letters); assay: alanine-scan peptide ELISA
T18 construct: E62A
T18 peptide: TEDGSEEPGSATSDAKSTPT
Description: as §2, §4

[22] = target: T19, tau 52-71 (A65) (human, N-terminal biotin on the synthetic peptide; not carried in the letters); assay: alanine-scan peptide ELISA
T19 construct: D65A
T19 peptide: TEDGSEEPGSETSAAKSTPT
Description: as §2, §4

[23] = target: T20, tau 52-71 (A67) (human, N-terminal biotin on the synthetic peptide; not carried in the letters); assay: alanine-scan peptide ELISA
T20 construct: K67A
T20 peptide: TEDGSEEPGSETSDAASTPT
Description: as §2, §4

[24] = target: tau 82-103 (human, N-terminal biotin, not carried by the letters); assay: peptide ELISA, biotinylated overlapping peptide on streptavidin plate, IgG titrated (Example 9)
Chain of tau 82-103 (human, N-terminal biotin, not carried by the letters) (peptide, as listed by the source limits assumed): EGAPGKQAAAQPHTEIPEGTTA
Description: (§5) Briefly, 96-well streptavidin-binding plates (Thermo-Fisher) were coated with 2 μg/ml of tau peptides diluted in TBS and incubated overnight at 4° C. […] Plates were washed five times with TBS-T followed by the addition of secondary antibody [goat Anti-Human IgG F(ab′)₂ (Jackson Labs) at 1:2000 dilution], diluted in TBS plus 0.25% BSA, and incubated at RT for 1 hour. Following incubation, plates were washed four times in TBS-T and developed with SureBlue Reserve TMB Microwell Peroxidase Substrate (KPL) for approximately 90 seconds. The reaction was immediately halted by the addition of TMB Stop Solution (KPL) and the absorbance at 450 nm was measured using an ELISA plate reader. Each experiment was conducted in triplicate across three different days. Reactivity was considered positive when values were equal to or higher than an OD of 0.4 in the ELISA assay. […] (−) for average of two O.D. 450 nm readings <0.3; (−/+) for >0.5 and <1.0; (+) for >1.0 and <1.5; (++) for >1.5. […] (−) for average of three O.D. 450 nm readings <0.3; (−/+) for >0.5 and <1.0; (+) for >1.0 and <1.5; (++) for >1.5.

[25] = target: T21, tau 62-81 (human, N-terminal biotin, not carried by the letters); assay: as above
T21 peptide: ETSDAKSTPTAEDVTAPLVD
Description: as §5

[26] = target: T22, tau 72-91 (human, N-terminal biotin, not carried by the letters); assay: as above
T22 peptide: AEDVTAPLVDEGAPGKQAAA
Description: as §5

[27] = target: T23, tau 42-61 (human, N-terminal biotin, not carried by the letters); assay: as above
T23 peptide: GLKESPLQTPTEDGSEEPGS
Description: as §5

[28] = target: ptau 406-429 (pS416, pS422) (human); assay: peptide ELISA, biotinylated peptide on streptavidin plate, IgG titrated (Example 6)
Description: as §1

[29] = target: T24, tau 389-441 (human, N-terminal biotin, not carried by the letters); assay: as above
T24 peptide: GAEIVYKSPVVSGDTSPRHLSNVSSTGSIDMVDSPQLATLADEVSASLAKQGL
Description: as §1

[30] = target: ptau 406-429 (pS416, pS422) (human); assay: peptide ELISA, 1 ug/mL IgG
Description: as §1

[31] = target: T25, tau 405-423 (human); assay: peptide ELISA
T25 peptide: Biotin-PRHLSNVSSTGSIDMVDSP
Description: as §5

[32] = target: T26, tau 409-428 (human, N-terminal biotin, not carried by the letters); assay: peptide ELISA
T26 peptide: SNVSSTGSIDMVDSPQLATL
Description: as §5

[33] = target: T27, ptau 404-421 (human); assay: peptide ELISA
T27 construct: also called ptau 404-421 p414
Description: as §5

[34] = target: ptau 406-423 (human); assay: peptide ELISA
Description: as §5

[35] = target: ptau 299-323 p305, 316 (human); assay: peptide ELISA, biotinylated peptide on streptavidin plate, IgG titrated (Example 14)
Chain of ptau 299-323 p305, 316 (human) (main, as listed by the source): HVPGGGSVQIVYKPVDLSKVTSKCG
Description: as §2, §3

[36] = target: T28, ptau 412-434 (human); assay: peptide ELISA, 1 ug/mL IgG
T28 construct: also called ptau 412-434 p422, 427

[37] = target: ptau 412-429 (human); assay: peptide ELISA, 1 ug/mL IgG
[38] = target: ptau 406-429 (pS416, pS422) (human); assay: peptide ELISA, 1 ug/mL IgG; remark: listed apart in the source
[39] = target: ptau 404-429 (human); assay: peptide ELISA, 1 ug/mL IgG

B1: CBTAU-24.1 (antibody, human IgG1, V domains shown)
VH: QVQLVQSGAEVKKPGASVKVSCTASGYTFTGYYLHWVRQAPGQGLEWMGWVNPRSGGTSYPPKFQGRVTMTRDTSINTAYMDLTWLTSDDTAVYYCAVGRIPDVTAFDIWGQGTPVTVSS
VL: DIQMTQSPDSLAVSLGERATINCKSSESLLYDSNNKNYLAWYQQKPGQPPKLLIYWASTRESGVPDRFSGSGSETDFTLTISSLQAEDVAVYHCQQYFSTPWTFGQGTKLEIK
notes: recombinant full-length human IgG1
Q: B1 was tested. Which OD450 [1] did it give?
A: Its OD450 is > 1.5 od.

Q: And the OD450 [2]?
A: Its OD450 is > 1.5 od.

Q: And the OD450 [3]?
A: The OD450 was > 1.5 od.

B2: CBTAU-28.1 (antibody, human IgG1, V domains shown)
VH: QVQLQQSGAEVKKPGESLKISCEASGYSFTNYWIGWVRQMPGKGLEWMGIIYPGDSDTRYSPPFQGQVTITADRSITTAYLEWSSLKASDTAMYYCARVGRPSKGGWFDPWGQGTLVTVSS
VL: DIQMTQSPDSLAVSLGERATINCESSQTLLYSSNEKNYLAWYQQKPGQPPKLLISWASTPESGVPDRFSGSGSGTSFTLTISSLQAEDVAVYYCQQYYNSPYTFGQGTRLEIK
notes: as for B1
Q: What does the source list for B2?
A: EC50 (read off the curve) [4]: ~0.2 µg/mL; binding result [5]: binds; binding result [6]: binds; binding result [7]: binds; binding result [8]: binds; binding result [9]: binds; binding result [10]: binds; binding result [11]: binds; binding result [12]: binds; binding result [13]: binds; binding result [14]: binds; binding result [15]: binds; binding result [16]: binds; binding result [17]: binds; binding result [18]: binds; binding result [19]: binds; binding result [20]: binds; binding result [21]: no binding (tested: OD450 <0.3 at 1 ug/mL); binding result [22]: no binding (tested: OD450 <0.3 at 1 ug/mL); binding result [23]: no binding (tested: OD450 <0.3 at 1 ug/mL); binding result [24]: no binding (tested: 5 µg/mL); binding result [25]: no binding (tested: 5 µg/mL); binding result [26]: no binding (tested: 5 µg/mL); binding result [27]: no binding (tested: 5 µg/mL)

B3: CBTAU-22.1 (antibody, human IgG1, V domains shown)
VH: QVQLVQSGAEVKKPGAPVKVSCETSGYRFSDYNVHWVRQAPGQGPEWIGRISPNSGGTKYAQKFQGRVTMTRDMSMNTAYMELSGLRSDDTAVYYCVRGHCDGTTCSRAYWGQGTLVTVSS
VL: DVVMTQSPLSLPVTPGEPASISCRSSQSLLHRSGHKYLHWYLQRPGQSPQVLIYLGSNRASGVPDRFSGSGSGTDFTLKISRVEAEDVGLYYCMQTLQTPWTFGQGTKVEIK
notes: as for B1
Q: What does the source list for B3?
A: EC50 (read off the curve) [28]: ~0.04 µg/mL; binding result [29]: no binding (tested: 5 µg/mL); OD450 [30]: > 1.5 od; binding result [31]: no binding (tested: OD450 <0.3 at 2 ug/mL); binding result [32]: no binding (tested: OD450 <0.3 at 2 ug/mL)

B4: CBTAU-27.1 (antibody, human IgG1, V domains shown)
VH: QVQLVESGPEMRKPGESLKISCKTSGYIFSDYWTAWVRQLPGKGLQWMGIIYSGDSDTRYHPSVQGHVTMSTDSSLTTAYLQWSSLKASDTGIYYCARLDARVDAGWQLDSWGQGTLVTVSS
VL: DIQLTQSPDSLAVSLGERATINCKSSQSVFSRDNNKNYLAWYQHKSGQPPKLLFFWASSRESGVSDRFSGSGSGTDFTLTIDNLQAEDVALYYCQHYFNTPHNFGQGTKLEIK
notes: as for B1
Q: B4 was tested. Which OD450 [33] did it give?
A: The OD450 was < 0.3 od.

Q: What about the OD450 [34] of the same binder?
A: Its OD450 is < 0.3 od.

Q: What about the “EC50 (read off the curve)” value [35] of the same binder?
A: Its value is ~0.01 µg/mL.

Q: What about the OD450 [36] of the same binder?
A: The OD450 was 0.5 to 1 od.

Q: What about the OD450 [37] of the same binder?
A: Its OD450 is 0.5 to 1 od.

Q: And the OD450 [38]?
A: Its OD450 is 0.5 to 1 od.

Q: And the OD450 [39]?
A: Its OD450 is 0.5 to 1 od.
